Laboratory results reported in paper doi:10.1101/518761.

Target: gp53C, C-terminal fragment of gene product 53 (gp53) of Acinetobacter baumannii bacteriophage AP22 (Acinetobacter baumannii bacteriophage AP22)
Experiment: crystal structure

For “gp53C, C-terminal fragment of gene product 53 (gp53) of Acinetobacter baumannii bacteriophage AP22 (domain or fragment)”, the stoichiometry N was 3.
